From IntAct's records for PubMed 20727515

B1: TBC1 domain family member 24 (Homo sapiens), Q9ULP9-2 (parent)
chain: MDSPGYNCFVDKDKMDAAIQDLGPKELSCTELQELKQLARQGYWAQSHALRGKVYQRLIRDIPCRTVTPDASVYSDIVGKIVGKHSSSCLPLPEFVDNTQVPSYCLNARGEGAVRKILLCLANQFPDISFCPALPAVVALLLHYSIDEAECFEKACRILACNDPGRRLIDQSFLAFESSCMTFGDLVNKYCQAAHKLMVAVSEDVLQVYADWQRWLFGELPLCYFARVFDVFLVEGYKVLYRVALAILKFFHKVRAGQPLESDSVKQDIRTFVRDIAKTVSPEKLLEKAFAIRLFSRKEIQLLQMANEKALKQKGITVKQKRQFVHLAVHAENFRSEIVSVREMRDIWSWVPERFALCQPLLLFSSLQHGYSLARFYFQCEGHEPTLLLIKTTQKEVCGAYLSTDWSERNKFGGKLGFFGTGECFVFRLQPEVQRYEWVVIKHPELTKPPPLMAAEPTAPLSHSASSDPADRLSPFLAARHFNLPSKTESMFMAGGSDCLIVGGGGGQALYIDGDLNRGRTSHCDTFNNQPLCSENFLIAAVEAWGFQDPDTQ
B2: ADP-ribosylation factor 6 (Homo sapiens), P62330 (parent)
chain: MGKVLSKIFGNKEMRILMLGLDAAGKTTILYKLKLGQSVTTIPTVGFNVETVTYKNVKFNVWDVGGQDKIRPLWRHYYTGTQGLIFVVDCADRDRIDEARQELHRIINDREMRDAIILIFANKQDLPDAMKPHEIQEKLGLTRIRDRNWYVQPSCATSGDGLYEGLTWLTSNYKS
partner: B1 chain

Variants of: B1
Conditions: with arf6_human ARF6, P62330

| Variant | effect of a mutation on the interaction |
| --- | --- |
| MDSPGYNCFVDKDKMDAAIQDLGPKELSCTELQELKQLARQGYWAQSHALRGKVYQRLIRDIPCRTVTPDASVYSDIVGKIVGKHSSSCLPLPEFVDNTQVPSYCLNARGEGAVRKILLCLANQFPDISFCPALPAVVALLLHYSIDEAECFEKACRILACNDPGRRLIDQSFLAFESSCMTFGDLVNKYCQAAHKLMVAVSEDVLQVYADWQRWLFGELPLCYFARVFDVFLVEGYKVLYRVALAILKFFHKVRAGQPLESDSVKQDIRTFVRDIAKTVSPEKLLEKAFAIRLFSRKEIQLLQMANEKALKQKGITVKQKRQFVHLAVHAENFRSEIVSVREMRDIWSWVPERFALCQPLLLFSSLQHGYSLARFYFQCEGHEPTLLLIKTTQKEVCGAYLSTDWSERNKFGGKLGFFGTGECFVFRLQPEVQRYEWVVIKHPELTKPPPLMAAEPTAPLSHSASSDPADRLSPFLAARHFNLPSKTESMFMAGGSDCLIVGGGGGQVLYIDGDLNRGRTSHCDTFNNQPLCSENFLIAAVEAWGFQDPDTQ [A509V] | with no effect |
| MDSPGYNCFVDKDKMDAAIQDLGPKELSCTELQELKQLARQGYWAQSHALRGKVYQRLIRDIPCRTVTPDASVYSDIVGKIVGKHSSSCLPLPEFVDNTQVPSYCLNARGEGAVRKILLCLANQFPDISFCPALPAVVALLLHYSIHEAECFEKACRILACNDPGRRLIDQSFLAFESSCMTFGDLVNKYCQAAHKLMVAVSEDVLQVYADWQRWLFGELPLCYFARVFDVFLVEGYKVLYRVALAILKFFHKVRAGQPLESDSVKQDIRTFVRDIAKTVSPEKLLEKAFAIRLFSRKEIQLLQMANEKALKQKGITVKQKRQFVHLAVHAENFRSEIVSVREMRDIWSWVPERFALCQPLLLFSSLQHGYSLARFYFQCEGHEPTLLLIKTTQKEVCGAYLSTDWSERNKFGGKLGFFGTGECFVFRLQPEVQRYEWVVIKHPELTKPPPLMAAEPTAPLSHSASSDPADRLSPFLAARHFNLPSKTESMFMAGGSDCLIVGGGGGQALYIDGDLNRGRTSHCDTFNNQPLCSENFLIAAVEAWGFQDPDTQ [D147H] | decreasing interaction strength |

Variants of: B2
Conditions: with TBC1D24, Q9ULP9-2

| Variant | effect of a mutation on the interaction |
| --- | --- |
| T27N | increasing interaction strength |
| Q67L | with no effect |
